This is an account of results in patent US20030031664A1 (GENERAL HOSPITAL, published 2003).

The target of experiment [1] is T1, human alpha-2-antiplasmin (human, UniProt P08697 40-491, limits assumed, 125I-labelled in the radioimmunoassays; biotinylated in the competition assay of Example 5).
T1 sequence (looked up): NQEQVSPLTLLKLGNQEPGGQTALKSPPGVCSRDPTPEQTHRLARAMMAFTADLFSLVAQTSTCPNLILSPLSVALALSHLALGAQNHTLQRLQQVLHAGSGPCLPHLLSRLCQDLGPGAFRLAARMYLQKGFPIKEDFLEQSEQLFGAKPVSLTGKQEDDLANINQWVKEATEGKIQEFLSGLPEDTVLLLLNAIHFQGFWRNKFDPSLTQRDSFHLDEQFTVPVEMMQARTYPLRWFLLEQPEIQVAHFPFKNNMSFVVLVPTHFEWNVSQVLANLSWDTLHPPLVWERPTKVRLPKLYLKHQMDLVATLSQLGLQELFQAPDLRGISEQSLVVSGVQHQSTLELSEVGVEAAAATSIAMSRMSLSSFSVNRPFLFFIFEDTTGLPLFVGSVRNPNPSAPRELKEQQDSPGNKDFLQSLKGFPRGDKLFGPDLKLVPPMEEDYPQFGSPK
Kind of experiment: cell-based or functional assay.

For experiment [2], the target named is ferret α2-antiplasmin (ferret). In words: cell-based or functional assay.

B1: monoclonal antibody 77A3 (antibody, V domains shown)
VH: QIQLVQSGPELKKPGETVKISCKASGYTFTNYGMNWVKQAPGKGLKWMGWINTKSGEPTYAEEFKGRFAFSLETSASTANLQIKNLKNEDTATYFCARWVPGTYAMDYWGQGTSVTVSS
VL: DIQMTQSPASLSASVGETVTITCRASGNIHNYLAWYQQKQGKSPQLLVYNAKTLADGVPSRFSGSGSGTQFSLKINSLQPEDFGSHYCQHFWTTPWTFGGGTKLEIK
B1: the “increase in potency of lysis by urokinase (dose response with and without MAb)” value in experiment [1] was ~100 fold. For the same molecule, in experiment [2], the inhibition of ferret α2AP activity in plasma, ex vivo, 1 and 4 hours after 22.5 mg/kg i.v. (chromogenic plasmin inhibition assay) came out at 75%.
